The target in this experiment is T1, full-length human SUFU protein, 35S-radiolabeled (human, UniProt Q9UMX1-1 1-484, [35S]-methionine label).
T1 construct: human SUFU, full length, residues 1-484, from plasmid pGEM4Z-SUFU; also called 35S-SUFU; radiolabeled SUFU; source: in vitro transcription and translation (SP6, Promega), partially purified by ammonium sulfate precipitation
T1 sequence (looked up): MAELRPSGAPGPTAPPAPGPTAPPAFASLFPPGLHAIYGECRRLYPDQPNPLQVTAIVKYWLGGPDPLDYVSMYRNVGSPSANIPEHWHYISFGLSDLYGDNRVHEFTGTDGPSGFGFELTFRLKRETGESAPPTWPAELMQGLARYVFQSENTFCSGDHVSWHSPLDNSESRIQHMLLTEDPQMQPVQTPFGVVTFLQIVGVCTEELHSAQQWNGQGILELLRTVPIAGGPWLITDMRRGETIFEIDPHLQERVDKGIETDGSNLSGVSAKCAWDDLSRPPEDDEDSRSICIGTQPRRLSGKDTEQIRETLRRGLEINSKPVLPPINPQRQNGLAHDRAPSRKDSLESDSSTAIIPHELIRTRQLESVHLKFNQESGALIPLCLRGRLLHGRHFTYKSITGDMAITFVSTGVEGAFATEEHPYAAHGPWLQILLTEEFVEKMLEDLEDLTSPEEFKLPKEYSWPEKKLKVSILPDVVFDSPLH
The experiment is described as follows: pull-down; purified GST-GLI1_(68-232) variants (mock treated or ERK2 phosphorylated), 0 or 1.25-80 nM, on glutathione-Sepharose beads; ∼1 pmol 35S-SUFU in 200 μl; 15 min at 30°C, then 1 h at room temperature; Binding Buffer (20 mM Tris-HCl pH 7.5, 125 mM KOAc, 0.5 mM EDTA, 5 mM DTT, 0.1% Tween20, 12.5% glycerol) + 1 mg/ml BSA; bound SUFU quantified by SDS-PAGE and Phosphorimager; Kd from binding isotherms. The following applies: one partner purified.

Values joined by “and” are separate entries in the source; they are usually repeats but may differ in a detail not shown here. Identical values can stand only once.

B1: GST-GLI1_(68-232), wild type, unphosphorylated (mock treated) (domain or fragment, human, UniProt P08151-1 68-232, looked up)
chain: FSSPRSAVKLTKKRALSISPLSDASLDLQTVIRTSPSSLVAFINSRCTSPGGSYGHLSIGTMSPSLGFPAQMNHQKGPSPSFGVQPCGPHDSARGGMIPHPQSRGPFPTCQLKSELDMLVGKCREEPLEGDMSSPNSTGIQDPLLGMLDGREDLEREEKREPESV
notes: vector pGEX-LB (Gly-Gly-Gly-Gly-Gly-Ser-Gly stretch between GST and the fused part); the plasmid is from Whisenant et al, 2010; also called wild-type GLI1; WT; source: bacteria, purified (glutathione-Sepharose); untreated or mock treated (no ERK2)
The term Kd denotes the constant that tells how readily two partners part at equilibrium. As to B1, the Kd is ~4 nM and 4 nM and 3 nM.

B2: GST-GLI1^7A, treated with active ERK2 (domain or fragment, human, UniProt P08151-1 68-232, looked up)
chain: FSAPRSAVKLTKKRALSIAPLSDASLDLQTVIRTAPSSLVAFINSRCTAPGGSYGHLSIGTMAPSLGFPAQMNHQKGPAPSFGVQPCGPHDSARGGMIPHPQSRGPFPTCQLKSELDMLVGKCREEPLEGDMSAPNSTGIQDPLLGMLDGREDLEREEKREPESV
modifications: treated with ERK2; only minimally phosphorylated
notes: also called 7A+ERK2; ERK2-treated GLI1^7A; source: bacteria, purified (glutathione-Sepharose); then treated with purified active ERK2
For the molecule B2, the Kd is ~23 nM.

B3: GST-GLI1^S102,S130, phosphorylated by ERK2 (domain or fragment, human, UniProt P08151-1 68-232, looked up)
chain: FSAPRSAVKLTKKRALSIAPLSDASLDLQTVIRTSPSSLVAFINSRCTAPGGSYGHLSIGTMSPSLGFPAQMNHQKGPAPSFGVQPCGPHDSARGGMIPHPQSRGPFPTCQLKSELDMLVGKCREEPLEGDMSAPNSTGIQDPLLGMLDGREDLEREEKREPESV
modifications: phosphorylated by ERK2; intact SP sites S102, S130
notes: only the SP sites S102 and S130 intact; also called ERK2-treated GLI1^S102,S130; source: bacteria, purified (glutathione-Sepharose); then phosphorylated with purified active ERK2
For B3, the Kd is 25 ± 3 nM.

B4: GST-GLI1^S102,S116, phosphorylated by ERK2 (domain or fragment, human, UniProt P08151-1 68-232, looked up)
chain: FSAPRSAVKLTKKRALSIAPLSDASLDLQTVIRTSPSSLVAFINSRCTSPGGSYGHLSIGTMAPSLGFPAQMNHQKGPAPSFGVQPCGPHDSARGGMIPHPQSRGPFPTCQLKSELDMLVGKCREEPLEGDMSAPNSTGIQDPLLGMLDGREDLEREEKREPESV
modifications: phosphorylated by ERK2; intact SP sites S102, S116
notes: only the SP sites S102 and S116 intact; also called ERK2-treated GLI1^S102,S116; source: bacteria, purified (glutathione-Sepharose); then phosphorylated with purified active ERK2
B4: the dissociation constant Kd worked out at 43 ± 8 nM.

B5: GST-GLI1^7A (GST-GLI1_(68-232) with all seven SP serines changed to alanine), mock treated (domain or fragment, human, UniProt P08151-1 68-232, looked up)
chain: FSAPRSAVKLTKKRALSIAPLSDASLDLQTVIRTAPSSLVAFINSRCTAPGGSYGHLSIGTMAPSLGFPAQMNHQKGPAPSFGVQPCGPHDSARGGMIPHPQSRGPFPTCQLKSELDMLVGKCREEPLEGDMSAPNSTGIQDPLLGMLDGREDLEREEKREPESV
notes: source: bacteria, purified (glutathione-Sepharose); mock treated (no ERK2)
Consider B5, for which the Kd is ~23 nM.

B6: GST-GLI1^S102 (GST-GLI1_(68-232), only S102 intact), mock treated (domain or fragment, human, UniProt P08151-1 68-232, looked up)
chain: FSAPRSAVKLTKKRALSIAPLSDASLDLQTVIRTSPSSLVAFINSRCTAPGGSYGHLSIGTMAPSLGFPAQMNHQKGPAPSFGVQPCGPHDSARGGMIPHPQSRGPFPTCQLKSELDMLVGKCREEPLEGDMSAPNSTGIQDPLLGMLDGREDLEREEKREPESV
notes: only the SP site S102 intact; also called S102 one site only; source: bacteria, purified (glutathione-Sepharose); mock treated (no ERK2)
As for B6, the dissociation constant Kd is ~3 nM.

B7: GST-GLI1^AAA (GST-GLI1_(68-232) S102A S116A S130A), mock treated (domain or fragment, human, UniProt P08151-1 68-232, looked up)
chain: FSSPRSAVKLTKKRALSISPLSDASLDLQTVIRTAPSSLVAFINSRCTAPGGSYGHLSIGTMAPSLGFPAQMNHQKGPSPSFGVQPCGPHDSARGGMIPHPQSRGPFPTCQLKSELDMLVGKCREEPLEGDMSSPNSTGIQDPLLGMLDGREDLEREEKREPESV
notes: as for B5
As to B7, the Kd is 17 nM.

B8: GST-GLI1^AAA, treated with active ERK2 (domain or fragment, human, UniProt P08151-1 68-232, looked up)
chain: FSSPRSAVKLTKKRALSISPLSDASLDLQTVIRTAPSSLVAFINSRCTAPGGSYGHLSIGTMAPSLGFPAQMNHQKGPSPSFGVQPCGPHDSARGGMIPHPQSRGPFPTCQLKSELDMLVGKCREEPLEGDMSSPNSTGIQDPLLGMLDGREDLEREEKREPESV
modifications: treated with ERK2; S70, S86, S146 and S201 remained intact as possible phosphosites
notes: also called GLI1^AAA + ERK2; source: bacteria, purified (glutathione-Sepharose); then phosphorylated with purified active ERK2
For the molecule B8, the Kd was 20 nM.

B9: GST-GLI1^S116 (GST-GLI1_(68-232), only S116 intact), mock treated (domain or fragment, human, UniProt P08151-1 68-232, looked up)
chain: FSAPRSAVKLTKKRALSIAPLSDASLDLQTVIRTAPSSLVAFINSRCTSPGGSYGHLSIGTMAPSLGFPAQMNHQKGPAPSFGVQPCGPHDSARGGMIPHPQSRGPFPTCQLKSELDMLVGKCREEPLEGDMSAPNSTGIQDPLLGMLDGREDLEREEKREPESV
notes: only the SP site S116 intact; also called S116 one site only; source: bacteria, purified (glutathione-Sepharose); mock treated (no ERK2)
Regarding B9, the Kd is 14 nM.

The values are drawn from article PMC9279676, “ERK2 MAP kinase regulates SUFU binding by multisite phosphorylation of GLI1” (Life Science Alliance, 2022).
